For one molecule, EC50 results are on record in patent WO2021180110A1.

For this experiment, the target named is COVID-19 Spike-RBD-his fusion protein (novel coronavirus (COVID-19)), P0DTC2. Conditions: remark: other sources report otherwise.

B1: CD147-his fusion protein, P35613 22-205 (receptor)
chain: AAGTVFTTVEDLGSKILLTCSLNDSATEVTGHRWLKGGVVLKEDALPGQKTEFKVDSDDQWGEYSCVFLPEPMGTANIQLHGPPRVKAVKSSEHINEGETAMLVCKSESVPPVTDWAWYKITDSEDKALMNGSESRFFVSSSQGRSELHIENLNMEADPGQYRCNGTSSKGSDQAIITLRVRSH
For the molecule B1, the EC50 was 68.8 µg/mL.
